# Laboratory results published in patent US20040071712A1.
# Molecular target: human mpl receptor (c-Mpl, the TPO receptor) (human) (UniProt P40238)
# Test: cell-based or functional assay
increase in potency as compared to the monomer (cell proliferation assay),loss of activity against the equivalent GGGG-linked analog (cell proliferation assay),potency as compared to the monomer (cell proliferation assay),Binder
> 1000 fold,–,–,"IEGPTLRQWLAARAGGGGGGGIEGPTLRQWLAARA [TMP-(G)n-TMP, n = 7 (peptide 8)]"
> 1000 fold,–,–,"IEGPTLRQWLAARAIEGPTLRQWLAARA [TMP-(G)n-TMP, n = 0 (peptide 1)]"
> 1000 fold,–,–,"IEGPTLRQWLAARAGGIEGPTLRQWLAARA [TMP-(G)n-TMP, n = 2 (peptide 3)]"
> 1000 fold,–,–,"IEGPTLRQWLAARAGGGGGIEGPTLRQWLAARA [TMP-(G)n-TMP, n = 5 (peptide 6)]"
> 1000 fold,–,–,"IEGPTLRQWLAARAGGGGGGGGGGIEGPTLRQWLAARA [TMP-(G)n-TMP, n = 10 (peptide 11)]"
–,> 10 fold,100 fold,IEGPTLRQWLAARAGPNGIEGPTLRQWLAARA [TMP-GPNG-TMP (peptide 13)]

# More lines, now with the values behind:
Binder,increase in potency as compared to the monomer (cell proliferation assay),loss of activity against the equivalent GGGG-linked analog (cell proliferation assay),potency as compared to the monomer (cell proliferation assay)
"IEGPTLRQWLAARAGGGGGGGGGGGGGGIEGPTLRQWLAARA [TMP-(G)n-TMP, n = 14 (peptide 12)]",> 1000 fold,–,–
"IEGPTLRQWLAARAGIEGPTLRQWLAARA [TMP-(G)n-TMP, n = 1 (peptide 2)]",> 1000 fold,–,–
"IEGPTLRQWLAARAGGGGGGGGIEGPTLRQWLAARA [TMP-(G)n-TMP, n = 8 (peptide 9)]",> 1000 fold,–,–
"IEGPTLRQWLAARAGGGGGGIEGPTLRQWLAARA [TMP-(G)n-TMP, n = 6 (peptide 7)]",> 1000 fold,–,–
"IEGPTLRQWLAARAGGGGGGGGGIEGPTLRQWLAARA [TMP-(G)n-TMP, n = 9 (peptide 10)]",> 1000 fold,–,–
"IEGPTLRQWLAARAGGGIEGPTLRQWLAARA [TMP-(G)n-TMP, n = 3 (peptide 4)]",> 1000 fold,–,–
"IEGPTLRQWLAARAGGGGIEGPTLRQWLAARA [TMP-(G)n-TMP, n = 4 (peptide 5)]",> 1000 fold,–,–
